Source: patent US20110123544A1 (published 2011)
Changes are numbered by the printed parent chain. Names and notes keep the numbering of the source. Read-outs that look alike come from different tables or passages of the source. Values belong to the molecule of their own block, whether it stands above or below them.

Columns and labels:
[1] = target: recombinant murine IL-12 (mouse) (UniProt P43431); assay: cell-based or functional assay
[2] = target: recombinant murine IL-12 (mouse) (UniProt P43431); assay: Receptor Binding Assay: inhibition of 125I-murine IL-12 binding to receptors on 2D6 cells
[3] = target: recombinant murine IL-12 (mouse) (UniProt P43431); assay: Biomolecular Interaction Assay; C17.15 captured on goat anti-rat IgG, soluble recombinant murine IL-12
Cyno IL-12 (PBMC sup) = target: T1, Cyno IL-12 (PBMC sup) (cynomolgus monkey); assay: cell-based or functional assay
T1 chain 1: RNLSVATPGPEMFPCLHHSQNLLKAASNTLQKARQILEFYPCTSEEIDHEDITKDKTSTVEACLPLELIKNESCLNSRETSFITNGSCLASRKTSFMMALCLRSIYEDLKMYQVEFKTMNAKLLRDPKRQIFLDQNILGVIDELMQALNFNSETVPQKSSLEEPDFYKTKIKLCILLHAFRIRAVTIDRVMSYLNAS
T1 chain 2: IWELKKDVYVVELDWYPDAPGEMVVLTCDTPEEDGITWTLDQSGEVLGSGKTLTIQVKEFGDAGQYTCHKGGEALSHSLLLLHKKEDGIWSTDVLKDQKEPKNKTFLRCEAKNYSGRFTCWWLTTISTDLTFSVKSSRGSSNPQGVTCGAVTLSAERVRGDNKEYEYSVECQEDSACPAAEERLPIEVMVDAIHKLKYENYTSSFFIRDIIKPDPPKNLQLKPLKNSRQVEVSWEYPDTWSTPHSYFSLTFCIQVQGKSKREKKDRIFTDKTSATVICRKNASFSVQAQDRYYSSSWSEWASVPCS

Baboon IL-12 (PBMC sup) = target: T2, Baboon IL-12 (PBMC sup) (baboon); assay: cell-based or functional assay
T2 chain 1: T1 chain 1 with F82V, N85K, K110Q, M111I, R125M, K172R
T2 chain 2: T1 chain 2 with V230A

[4] = target: recombinant rhesus IL-12 (rhesus monkey) (UniProt P48091); assay: cell-based or functional assay
[5] = target: recombinant human IL-12 (rhIL-12) (human) (UniProt P29459); assay: cell-based or functional assay
[6] = target: T3, recombinant human interleukin 12 (p40/p35 heterodimer) (human, UniProt P29460 23-328; P29459 23-219); assay: BIAcore; unmutated
T3 chain 1: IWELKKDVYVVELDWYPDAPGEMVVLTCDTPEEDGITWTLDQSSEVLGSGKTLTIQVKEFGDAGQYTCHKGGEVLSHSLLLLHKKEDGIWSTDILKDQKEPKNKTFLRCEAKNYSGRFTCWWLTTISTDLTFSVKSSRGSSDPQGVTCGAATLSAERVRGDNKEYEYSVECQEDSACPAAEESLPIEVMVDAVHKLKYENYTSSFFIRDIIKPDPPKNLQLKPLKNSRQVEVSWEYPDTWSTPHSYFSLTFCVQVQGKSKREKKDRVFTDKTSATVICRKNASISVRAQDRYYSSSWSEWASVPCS
T3 chain 2: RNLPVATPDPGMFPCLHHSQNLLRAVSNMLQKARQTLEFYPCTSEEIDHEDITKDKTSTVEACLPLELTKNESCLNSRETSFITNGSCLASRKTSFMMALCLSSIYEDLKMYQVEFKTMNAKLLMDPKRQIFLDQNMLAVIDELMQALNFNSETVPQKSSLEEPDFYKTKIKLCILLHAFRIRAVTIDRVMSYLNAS

[7] = target: T3, recombinant human interleukin 12 …; assay: BIAcore; unmutated
[8] = target: T3, recombinant human interleukin 12 …; assay: BIAcore; unmutated
[9] = target: T4, recombinant human IL-12 (rhIL-12) (human, UniProt P29459 23-219; P29460 23-328); assay: cell-based or functional assay
T4 sequence (looked up) 1: T3 chain 2
T4 sequence (looked up) 2: T3 chain 1

[10] = target: T4, recombinant human IL-12 (rhIL-12); assay: BIAcore (SPR) off-rate on IL-12 chip
Excerpt: The system utilizes the optical properties of SPR to detect alterations in protein concentrations within a dextran biosensor matrix. Proteins are covalently bound to the dextran matrix at known concentrations. […] To determine the off rate (koff), on rate (kₒₙ), association rate (Ka) and dissociation rate (Kd) constants, BIAcore kinetic evaluation software (version 2.1) was used.

[11] = target: T4, recombinant human IL-12 (rhIL-12); assay: cell-based or functional assay; remark: listed apart in the source
[12] = target: T4, recombinant human IL-12 (rhIL-12); assay: RB assay: inhibition of 125I-hIL-12 binding to IL-12 receptors on PHA blasts
Description: PHA blast cells isolated as described above, were washed once and resuspended in binding buffer to a cell density of 2×10⁷ cells/ml. […] The cell pellet was examined for cell bound radioactivity using a gamma counter. […] Incubations were carried out in duplicate.

recombinant murine IL-12 (mouse), sequence (P43431 23-215, chain 1 of 2): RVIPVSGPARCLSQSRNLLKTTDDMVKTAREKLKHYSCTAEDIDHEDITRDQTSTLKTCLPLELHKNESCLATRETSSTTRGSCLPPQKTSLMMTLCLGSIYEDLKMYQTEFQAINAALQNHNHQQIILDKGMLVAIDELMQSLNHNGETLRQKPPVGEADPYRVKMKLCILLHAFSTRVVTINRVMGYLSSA
recombinant murine IL-12 (mouse), sequence (P43432 23-335, chain 2 of 2, further chain): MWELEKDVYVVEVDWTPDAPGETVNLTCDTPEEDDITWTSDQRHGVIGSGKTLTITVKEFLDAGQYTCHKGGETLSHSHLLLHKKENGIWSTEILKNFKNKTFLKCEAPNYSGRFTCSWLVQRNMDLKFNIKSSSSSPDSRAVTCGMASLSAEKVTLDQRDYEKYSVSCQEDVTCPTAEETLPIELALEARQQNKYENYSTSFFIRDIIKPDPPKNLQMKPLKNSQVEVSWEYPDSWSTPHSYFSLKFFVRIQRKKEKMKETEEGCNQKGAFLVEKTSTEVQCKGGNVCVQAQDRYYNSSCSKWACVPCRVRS

Molecule: FIRYDGSNKYYADSVKG [Y61 H54 G]
- koff [7]: 0.000178 s⁻¹

Molecule: FIRYDGSNKYYADSVKG [Y61 H58 Y]
- koff [8]: 0.00031 s⁻¹

Molecule: FIRYDGSNKYYADSVKG [Y61 H56 N]
- koff [8]: 0.000385 s⁻¹

B1: Y61 IgG (antibody, V domains shown)
VH: QVQLVQSGGGVVQPGRSLRLSCAASGFTFSSYGMHWVRQAPGKGLEWVAFIRYDGSNKYYADSVKGRFTISRDNSKNTLYLQMKSLRAEDTAVYYCKTHGSHDNWGQGTMVTVSS
VL: SYVLTQPPSVSGTPGQRVTISCSGGRSWIGSNTVKWYQQLPGTAPKLLIYGNDQRPSGVPDRFSGSKSGTSASLAITGVQAEDEADYYCQSYDRGTHPALLFGTGTKVTVLG
- IC50 (M), Cyno IL-12 PBMC sup (Cyno IL-12 (PBMC sup)): 2.2e-10 M
- IC50 (M), Rhesus IL-12 Purified [4]: 1e-10 M

B2: 149-6 (scFv, V domains shown)
VH: B1 VH with K97T
VL: B1 VL with W28N, G30V, T96F, H97T, P98G, A99S, L100R, L101V
- PHA assay IC50 (M) p70:p40 1:0 [9]: 9e-10 M
- PHA assay IC50 (M) p70:p40 1:20 [9]: 1e-09 M
- PHA assay IC50 (M) p70:p40 1:50 [9]: 1e-09 M

B3: 149-5 (scFv, V domains shown)
VH: B1 VH with K97T, N104T
VL: B1 VL with W28N, R94S, G95S, T96L, H97W, P98G, A99T, L100R, L101V
- PHA assay IC50 (M) p70:p40 1:0 [9]: 6.5e-09 M
- PHA assay IC50 (M) p70:p40 1:20 [9]: 7e-09 M
- PHA assay IC50 (M) p70:p40 1:50 [9]: 4e-09 M

B5: 136-15 (scFv, V domains shown)
VH: B1 VH
VL: B1 VL with G25S, W28N, S91T, R94K, T96F, H97T, P98G, A99S, L100S, L101V
- PHA assay IC50 (M) p70:p40 1:20 [9]: 5e-09 M
- PHA assay IC50 (M) p70:p40 1:50 [9]: 4e-09 M

B6: Y55 (scFv, V domains shown)
VH: B1 VH
VL: B1 VL with W28N, P98F, A99Q, L100M, L101Y
- koff [10]: 0.00106 s⁻¹
- IC50 [12]: 140 pM
- PHA assay IC50 [11]: > 10000 pM

B7: Y19 (scFv, V domains shown)
VH: B1 VH
VL: B1 VL with W28N, T96H, L100M, L101S
- koff [10]: 0.000226 s⁻¹
- IC50 [12]: 30 pM
- PHA assay IC50 [11]: > 10000 pM

B8: 99-F8 (scFv, V domains shown)
VH: B1 VH
VL: SYVLTQPPSVSGTPGQRVTISCSGGRSNIGSNTVKWYQQLPGTAPKLLIYGNDQRPSGVPDRFSGSKSGTSASLAITGVQAEDEADYYCQSYIRAPQQVFGTGTKVTVLG
- koff [10]: 0.0037 s⁻¹

B9: Y61-L50Y-H31E IgG (antibody, V domains shown)
VH: B1 VH with S31E
VL: B1 VL with G51Y
- koff [10]: 2.99e-05 s⁻¹
- IFN gamma IC50 [11]: 20 pM
- PHA assay IC50 [11]: 60 pM

B10: D9 (scFv, V domains shown)
VH: B1 VH
VL: B1 VL with W28N, T96R, H97L, L100Q, L101T
- koff [10]: 0.000821 s⁻¹
- IC50 [12]: 3500 pM

B11: Y61 (scFv, V domains shown)
VH: B1 VH
VL: B1 VL
notes: scFv; also called Y61 scFv
- koff [10]: 0.000275 s⁻¹
- IC50 [12]: 40 pM
- PHA assay IC50 [11]: 140 pM

More lines, now with the values ahead:

- IC50 (M), Mouse IL-12 Purified [1]: 3e-11 M
- PHA blast Assay IC50 [1]: 14 pM
- IC50 [2]: 150 pM
- Kd [3]: 480 pM
- koff [3]: 0.000184 s⁻¹
- kon [3]: 380000 M⁻¹ s⁻¹
Molecule: C17.15, rat anti-murine IL-12 monoclonal antibody

- IC50 (M), Cyno IL-12 PBMC sup (Cyno IL-12 (PBMC sup)): 1.2e-10 M
- IC50 (M), Baboon IL-12 PBMC sup (Baboon IL-12 (PBMC sup)): 2e-10 M
- IC50 (M), Rhesus IL-12 Purified [4]: 1e-10 M
- IC50 (M), Human IL-12 Purified [5]: 5e-11 M
Molecule: C8.6.2, mouse anti-human IL-12 monoclonal antibody

- koff [6]: 0.000337 s⁻¹
Molecule: FTFSSYGMH [Y61 H32 Y]

- koff [7]: 0.000204 s⁻¹
Molecule: FIRYDGSNKYYADSVKG [Y61 H50 F]

- koff [6]: 0.000249 s⁻¹
Molecule: FTFSSYGMH [Y61 H31 S]

- koff [10]: 4.64e-05 s⁻¹
- IFN gamma IC50 [11]: 10 pM
- PHA assay IC50 [11]: 10 pM
B4: Y61-L50Y-H31E-L94Y IgG (antibody, V domains shown)
VH: B1 VH with S31E
VL: B1 VL with W28N, G51Y, G95Y

- IC50 (M), Cyno IL-12 PBMC sup (Cyno IL-12 (PBMC sup)): 1e-11 M
- IC50 (M), Baboon IL-12 PBMC sup (Baboon IL-12 (PBMC sup)): 1.5e-11 M
B12: J695 (Y61-L94Y-L50Y IgG) (antibody, V domains shown)
VH: B1 VH with Q6E, K84N
VL: B1 VL with S1Q, Y2S, T13A, G25S, W28N, G51Y, V79L, G95Y

- koff [7]: 0.000206 s⁻¹
Molecule: FIRYDGSNKYYADSVKG [Y61 H52 R]

- koff [6]: 0.000168 s⁻¹
Molecule: FTFSSYGMH [Y61 H30 S]

- koff [7]: 0.000151 s⁻¹
Molecule: FIRYDGSNKYYADSVKG [Y61 H53 D]

- koff [6]: 0.000178 s⁻¹
Molecule: FTFSSYGMH [Y61 H33 G]
